In the Human Domainome abundance scans (Beltran et al. 2025) one finds abundance fitness data, which are given here for 167 variants.

B1: Tyrosine-protein kinase BTK, residues 215 to 273; numbered along this chain, Q06187 (parent)
chain: ELKKVVALYDYMPMNANDLQLRKGDEYFILEESNLPWWRARDKNGQEGYIPSNYVTEAE

± gives the uncertainty stated by the source.

In the series the parent is B1. Kind of series: abundance fitness (aPCA) (normalised: wild type 0, dead -1); higher = more abundant; growth selection in yeast, the domain comes from the species named. The conditions noted are these: Homo sapiens.
Y11S: the abundance fitness was -0.161 ± 0.033.

For Y11L, the abundance fitness is -0.094 ± 0.031. On to Y11F, for which the abundance fitness was determined as 0.005 ± 0.05. For Y11D the value was -0.72 ± 0.14; for Y11M, -0.099 ± 0.06. As for Y11G, the figure is -0.709 ± 0.058. For Y11C the value was -0.202 ± 0.05. Consider Y11H, for which the abundance fitness was -0.155 ± 0.07.

In the case of Y11V, the abundance fitness was -0.298 ± 0.042. As for Y11E, the figure is -0.562 ± 0.1. For Y11W the value was 0.017 ± 0.04. As for Y11N, the figure is -0.383 ± 0.075; as for Y11T, -0.182 ± 0.058; as for Y11P, -0.704 ± 0.063. For Y11Q, the abundance fitness was -0.316 ± 0.065. For Y11R the value was 0.032 ± 0.032; for Y11I, -0.245 ± 0.05.

As to L8R, the abundance fitness was -0.017 ± 0.028. Regarding L8T, the abundance fitness was -0.019 ± 0.04.

For the variant L8Q, the abundance fitness was -0.093 ± 0.047. For L8M the value was -0.014 ± 0.049. As for L8V, the figure is -0.055 ± 0.029; as for L8P, -0.657 ± 0.05; as for L8N, -0.118 ± 0.077.

For L8K, the abundance fitness is -0.003 ± 0.052. As for L8S, the figure is -0.107 ± 0.035; as for A16R, -0.055 ± 0.028. For A16Q the value was 0.016 ± 0.04; for A16I, -0.229 ± 0.058. For A16V the value was -0.046 ± 0.03. Take A16P: the abundance fitness was -0.093 ± 0.043. As for A16E, the figure is 0.013 ± 0.042; as for A16W, -0.105 ± 0.037. As for A16N, the abundance fitness is -0.045 ± 0.055. As for A16Y, the figure is -0.17 ± 0.06.

Turning to A16K, the abundance fitness was -0.068 ± 0.044. As for A16L, the figure is -0.083 ± 0.027; as for A16D, 0.044 ± 0.051. For A16C the value was -0.063 ± 0.054; for A16T, -0.031 ± 0.039.

For A16M, the abundance fitness is -0.141 ± 0.042. Regarding A16S, the abundance fitness was -0.042 ± 0.031. For A16H the value was -0.026 ± 0.074. For A16F the value was -0.18 ± 0.053; for M14N, 0.059 ± 0.062; for M14C, -0.08 ± 0.059. For M14F the value was 0.022 ± 0.044. On to M14A, for which the abundance fitness is 0.051 ± 0.039. As for M14K, the figure is -0.007 ± 0.059; as for M14P, -0.002 ± 0.049; as for M14Q, 0.038 ± 0.064. As for M14T, the figure is -0.028 ± 0.04. For M14S the value was -0.001 ± 0.031; for M14I, -0.049 ± 0.049. Turning to M14L, the abundance fitness is -0.018 ± 0.03. For M14W the value was -0.129 ± 0.042; for M14H, 0.068 ± 0.1. As for M14Y, the figure is -0.15 ± 0.12; as for M14D, -0.013 ± 0.076. Turning to M14G, the abundance fitness worked out at 0.02 ± 0.035.

Take M14R: the abundance fitness amounted to 0.051 ± 0.035. For M14V the value was 0.026 ± 0.032; for P13K, -0.119 ± 0.066; for P13G, -0.068 ± 0.041. As for P13S, the figure is -0.081 ± 0.041; as for P13H, -0.51 ± 0.11; as for P13D, -0.458 ± 0.095.

P13Y: the abundance fitness was -0.774 ± 0.1. In the case of P13R, the abundance fitness is -0.153 ± 0.036. As to P13L, the abundance fitness is -0.734 ± 0.048.

For P13N, the abundance fitness is -0.275 ± 0.1. For P13A the value was -0.082 ± 0.046. As for P13C, the figure is -0.235 ± 0.056. With P13E, the abundance fitness is -0.343 ± 0.06. As for P13Q, the figure is -0.296 ± 0.076; as for P13M, -0.406 ± 0.077; as for P13W, -0.778 ± 0.073. Regarding P13I, the abundance fitness was -0.193 ± 0.16.

Regarding P13F, the abundance fitness was -1.08 ± 0.27. As for N17L, the figure is -0.019 ± 0.031. Take N17R: the abundance fitness is -0.001 ± 0.033. For N17V the value was -0.068 ± 0.031; for N17P, -0.123 ± 0.045; for N17Y, -0.088 ± 0.056. For N17K the value was -0.052 ± 0.058. N17E: the abundance fitness is -0.024 ± 0.043. For N17F, the abundance fitness is -0.029 ± 0.056. As for N17A, the figure is -0.041 ± 0.035; as for N17H, 0.03 ± 0.068. For N17W the value was -0.115 ± 0.034. As for N17M, the figure is -0.017 ± 0.05; as for N17S, -0.002 ± 0.035.

As to N17I, the abundance fitness was -0.187 ± 0.075.

N17C: the abundance fitness was -0.01 ± 0.056. As for N17T, the figure is 0.002 ± 0.051. For N17Q the value was 0.033 ± 0.044.

For N17D, the abundance fitness is -0.011 ± 0.067. For Y9Q the value was 0.098 ± 0.051.

In the case of Y9L, the abundance fitness was determined as 0.056 ± 0.029.

For Y9G, the abundance fitness is -0.018 ± 0.031. For Y9R the value was 0.057 ± 0.031; for Y9W, -0.053 ± 0.044. As for Y9N, the figure is 0.07 ± 0.057; as for Y9V, 0.031 ± 0.028; as for Y9M, 0.053 ± 0.038. For Y9P the value was -0.663 ± 0.054; for Y9F, 0.012 ± 0.05; for Y9A, 0.062 ± 0.042. Regarding Y9E, the abundance fitness was 0.001 ± 0.039. For Y9K the value was 0.073 ± 0.045. As for Y9D, the figure is -0.007 ± 0.061; as for Y9C, 0.006 ± 0.05; as for Y9S, 0.053 ± 0.031. As for D10C, the abundance fitness is -0.783 ± 0.37. Consider D10N, for which the abundance fitness is -0.102 ± 0.049. As for D10G, the figure is -0.168 ± 0.2; as for D10F, -0.758 ± 0.24. As for N15W, the figure is -0.14 ± 0.04; as for N15I, -0.079 ± 0.054.

As to N15A, the abundance fitness is -0.077 ± 0.034.

As for N15V, the abundance fitness was determined as 0.052 ± 0.026. For N15R the value was 0.026 ± 0.03; for N15T, 0.089 ± 0.042; for N15P, -0.442 ± 0.044. On to N15L, for which the abundance fitness worked out at 0.004 ± 0.03. For N15H the value was -0.048 ± 0.069; for N15M, -0.03 ± 0.037. In the case of N15D, the abundance fitness is -0.018 ± 0.049. Regarding N15E, the abundance fitness was -0.011 ± 0.037.

In the case of N15F, the abundance fitness is -0.176 ± 0.045.

N15G: the abundance fitness was 0.065 ± 0.031. As for N15S, the figure is 0.059 ± 0.032. As to N15Y, the abundance fitness was -0.23 ± 0.062. For D18S the value was -0.051 ± 0.036; for D18L, -0.073 ± 0.032; for D18V, -0.061 ± 0.038. For D18N the value was 0.009 ± 0.057; for D18Q, 0.018 ± 0.043; for D18I, -0.033 ± 0.077. As for D18F, the figure is -0.04 ± 0.067.

D18E: the abundance fitness came to 0.05 ± 0.039. For D18A the value was -0.017 ± 0.041; for D18P, -0.469 ± 0.051.

As to D18H, the abundance fitness stood at 0.146 ± 0.065. As for D18G, the figure is -0.038 ± 0.037; as for D18R, 0.004 ± 0.031; as for D18K, -0.048 ± 0.044. In the case of D18T, the abundance fitness was -0.034 ± 0.043. Regarding M12D, the abundance fitness was -0.04 ± 0.054. As for M12N, the figure is -0.007 ± 0.067. For M12L the value was 0.016 ± 0.032. As for M12V, the figure is -0.022 ± 0.039; as for M12A, 0.017 ± 0.038.

As for M12G, the abundance fitness is -0.136 ± 0.036. As for M12Y, the figure is -0.018 ± 0.069. As for M12S, the figure is 0.007 ± 0.037; as for M12Q, -0.009 ± 0.055; as for M12I, 0.036 ± 0.06.

In the case of M12C, the abundance fitness is 0.032 ± 0.052.

Turning to M12K, the abundance fitness was 0.065 ± 0.051. For M12W the value was -0.07 ± 0.039; for M12E, 0.017 ± 0.049.

Turning to M12P, the abundance fitness was -0.008 ± 0.048.

Regarding M12H, the abundance fitness turned out to be 0.006 ± 0.091. For M12F the value was -0.062 ± 0.068. As for M12R, the figure is -0.002 ± 0.029; as for M12T, 0.016 ± 0.051.
